The domain aggregation screens of Martell et al. (2025)

Experiment: soluble fraction after stress (log2 fold change); higher = more stays soluble; pooled small domains, quantitative proteomics
Details: stress: 50 degC
In short: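 Custom libraries of small protein domains were pooled and measured in a high-throughput format, with quantitative proteomics as the read-out. Each library was stressed at 50°C. The value is the log2 fold change in the amount of each protein that stays soluble after stress, used as a measure of aggregation propensity; higher values mean more of the protein stays soluble.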

Sequence | soluble fraction (log2)
HMKPSVEIKVNGGTGAGVVKKGGSITVTANEPAEGKVFTGWQDESGKIVSTQKEYTFTVAEGTTLTAVYED | 0.45
HMKPTGWVRGDMGVVDKGQLSITQGTVNVRSGPGLSYEILDQVRRGDRFPVIKSQSGWHNISM | 0.0818
HMKPTSLLGIERYLGSGLIRGVGPSTAKQIVEHFGMETMEVLTEHPERLQEVHGMGRKRWRQIAESFQEQQ | -0.797
HMKPVTVINFVGMTEEKAMTEAEKLGLVVGASSSEYSDEPAGTVIRQSISVSTEAKTGDNIYFTVSKGPE | 0.163
HMKQETLNEIGTKIRKLRESKNLSIQEFADKLEMEYNNVIRIEKGRTNFTIGTLVKIANSLEVNLKDI | -0.78
HMKQFVVQYYGIDGEVINSVYKNGMSDLTSYEPEKIDGKNFKGWSLSEDSKKVIDENYRINSDVNLYAVYT | 0.0253
HMKQHPTIDLQIGQKLHYKEDVFEVTRFAKDKNGQDMVILKDPSIGSGIEIPWYRSKLEEIIESGQYKIT | 0.413
HMKQIEEIIARYTNENTPLMMILSDVQREYGYIPLDVQELISEKTGIPVAEIYGVVTFYSFFSL | -0.572
HMKQISQNIHRLRKEKGMSQEQLAQALHVTRQTVSAWERGIAQPSLDVLGQIAQLLGVEPERLLYGE | 0.153
HMKQLQIPYSFAKRHGVLLRYEGDQAFIVRRDNTSMLALQEARRLLGHPAHYLLYSEQEFNQLLSASFA | -2.7
HMKQLVVVPRVVSLSEGKAREDVGDRGLVVDRVEMDTLRTPYENTVTRQEPAADSRVPVGTRVTLWISPGV | 0.261
HMKQNSDDGEIRKIIIEILDNNLDNVNKYKSGRTNVLDFFVGQVMKQTRGQANPELTRSILTEELSN | 0.0594
HMKQQTRAELLDEFAKAHAERGLYFNRDYEQGEIQALQPDKAREYLQSALEARTERQQASEQDR | 0.274
HMKQTDQELAEMLRFRAAQRGLLMSDEVVNYVMTRVERSAKSLIMLLDRIDRAALAQARPVTIPLINEL | -0.499
HMKQVEVPRLVGLTLREAQAVLGQVGLRIGLISRAALLASPREQIVEQIPVAGERNIATPYVNLLVNVP | -0.649
HMKRDEYIAQLKKYLKRLPKKEYDSAIEYFTEYFDEAGPERELEVIQELGQPKEAAKEMLLQLLNE | 0.0905
HMKRDNETRRRIVAAAEELFRAKGLDGVNMRELAEMAGVNKGLLHYYFKTKQALFREILVGQMAL | -1.05
HMKRDRLYGITIYLLNHGRTSAKTLAEYFEVSVRTIQRDMDALSMAKIPIIAYPGSDGGYEIQEGYRL | -3.1
HMKRDYELPAFIETYLKKNHVAIDTKSAAMIAEHIGADLSRLISELDKVMISLPDDDRRVTPDVVEREI | -0.00533
HMKREETLKALATKNANYVARSGRRYSFEPMNPYERRIIHTAVQEIEGVTSRSIGSGMDRRVLIEPEGGV | -0.194
HMKRELFVEPGMRLEHTPSKTSGPVVSFIEGVIVVIKDQLGSEHRFDPVPGFFRHEGDLVALRSPLL | -0.282
HMKRIDTILETFAKVHKHIPSKLILLGDGPELLDMRKIARSLHIEDDVLFLGKQDQVSKFYQMADLVLLL | -0.0419
HMKRIHLSDEEKTDLESLHYSSNDGKQRDRIKAVLLRSEGWTVPMISQALRIHETTVTRYLNDYREGKLKN | 0.00871
HMKRITKKELKQAIVDVFADKPGQSFNYKQLATIIGIKDDPTRRMITDILYELVQEERIVELYRGKFKMEM | -0.66
HMKRLPFSFAKRFGVVVEDGEPPIVHHRDGASAETLLEVRRRLGQVFTLQRHDAEAFERLLTQAYQR | -0.383

Sequence | soluble fraction (log2)
HMKRPEPESPEAERRSQRAADWLVRRDRGLTAAEQDEFLQWLAIDPRHGEWFALHRSVVGEFSA | -0.192
HMKRQDFEFLVNLLRQNAGWDFDEEQYFVVDKKISNFIREKGYASVEDLIDELKVGAKPLISQVVESLAL | -0.622
HMKRTFGEISPLPSGRYRARYRGPDGERYPAPVTFLSRMDAETWLSAQARKVSSGDWTPPVGVVA | -0.16
HMKRWHVGDPIDALTAAGKVPSWSTIRQRFWKTIAALYPDIEQSERLQRGLAMLDEAGTSIELHHP | -1.01
HMKRYLFEEVLAFLKHNDGKSFNYKQLGAAMEIDNESDRFALLETLEELKHQGFVIETDIGKYAAKE | -0.324
HMKSDELTKRRRLQIIEAAERSFRKRGFHATTLREIAAEFGMSVGHIYNYFSGKDAILEALIHQKIDD | -0.82
HMKSKHENLIDGLLKMISSMKPHDRLTPERQLAEEWAVSRMTLRRALEVLQFQGKIYTVPSSGLFVAEPK | -2.29
HMKSKPRVPFGSLVEMGILKPGSILFDPKGKIKTKVMVDGSIKYKETEGSIHKVAAQIMGTESYNGWTYW | 0.355
HMKSLDDVISKFRPTGSENKIDFRKRVISEIHAQGFFKIKGSVNHVAKALGVTRYTVYNYLDKLND | -3.23
HMKSLLTHAEEFVRNNNGRWMLAETSSKESYSSKQNFYLRNNYSIISEIRDFYSVGDNLLVFGKFFT | 0.0992
HMKSNESAELGERMLNKALLALHTDSSKISDTQWQKLLRDYGAKNKQEILTDIGLGKRLNVMVAHQLMAMG | -0.0795
HMKSNIGENIRQLREKREMSVERVARMLEVKPATVIGWESGRELPEPAELGLLAKLFDVTVEELN | 0.106
HMKSNKEKIYDFIQMHDTAEKEGGVSTTYIAQALSLQRTNVSSLLNALVEEGRIHKSNGRPVLYSIAG | 0.0955
HMKSPAQAAALKKLWAAIKQNEQGEVVEVLFHNRKLTDAGLVHLKGLANLQTLNLYDTKITGAGLVHL | 0.0876
HMKSVLDDVAGLGPVRKKALLKAMGGFTRLRAASLDDILAVRAVPEEVAREVFAVLAQYNSVRNNDISE | -0.273
HMKSVTAPLPGTVTQILVKVGDAVKAGDTVLMLEAMKMENSITAEAAGTVKAIRVEKGAQVQGGDVLIEM | 0.156
HMKTAAKVLGESGGKPVTVQSGRYGPYVQLGTIRATLPKDLDQEAVTLDKALELIDAKAERSGK | 0.172
HMKTDFEIDITVKASSLRVVASPGGDELVGTVTRGDRVTQLATPKDGWILIKMTDGRLGYVPESLLLFP | -0.0577
HMKTEIGQAMRKLRKAKKMTQDTLAEKLGVAPANISRYEKGQQGIEVDKLPTLADALGVSVPEFFAIASG | 0.0437
HMKTELAYDFHSRIRDARIREGLSQVDLAKRMNEKIAVIQKAENGIRPTDSLIAKFSKALSVELYVE | -1.26
HMKTGIIYGVNGPVIYLKGDTGFKISEMVYVGPEKLVGEVIGLKKHMTTVQVFEETTGLKPGETVIGTGDA | -0.486
HMKTGTVQDFIAKYGMSSKSPSSWFNSLTQIQKAEAKALKAQSGLTWNEWYEKNIYNGDGSNL | 0.0263
HMKTKHISIAEGMSLYTRDRSPFYWGYLNIEGVIHKKSLKTDVVDEAIKLLSIWKNELLNSITK | -1.28
HMKTKKYKGVYKDSKGKIYFQIELGVDPITGKRIQKKGRKNQQGLPFNSFKEAYEEILRLKHEFVNSTIN | -2.69
HMKTKTAPPDSIPPAWLKESATLRPDLNQAQIKASAEVFLDHHRAKGTTLADWRPAWRNWIRRERA | 0.116
